The results in this text go back to PMC12678272.

The target in assay [1] is GST-RILP-L1 (RILP-Like 1, mouse) (mouse) (UniProt Q9JJC6). Kind of assay: pull-down; 20 ug GST fusion protein immobilised on glutathione agarose beads, incubated 18 h at 4 C with 500 ug RAW264.7 macrophage lysate (untreated or treated with GSK2578215A); 50 mM HEPES pH 7.4, 150 mM NaCl, 1 mM MgCl2, 1% Triton X-100, phosphatase inhibitors; immunoblot, quantified as percent of total input.

Assay [2] has as its target GST-RILP-L2 (RILP-Like 2, mouse) (mouse) (UniProt Q99LE1). Described as above.
Chain of UniProt Q99LE1 (Q99LE1 whole entry, the tested form may be a part): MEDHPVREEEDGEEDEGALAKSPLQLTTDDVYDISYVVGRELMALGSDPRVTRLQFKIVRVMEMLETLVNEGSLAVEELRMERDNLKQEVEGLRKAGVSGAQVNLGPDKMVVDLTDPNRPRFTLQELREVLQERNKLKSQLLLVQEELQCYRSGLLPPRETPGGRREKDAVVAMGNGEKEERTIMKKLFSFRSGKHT
For assay [3], the target named is GST-RILP-L1 (RILP-Like 1, mouse) (mouse) (UniProt Q9JJC6). Kind of assay: pull-down; 20 ug GST fusion protein immobilised on glutathione agarose beads, incubated 18 h at 4 C with 500 ug RBL cell lysate (untreated, Ion/TPA-activated, or Ion/TPA with LY333531); 50 mM HEPES pH 7.4, 150 mM NaCl, 1 mM MgCl2, 1% Triton X-100, phosphatase inhibitors; immunoblot, quantified as percent of total input.

The target of assay [4] is GST-RILP-L2 (RILP-Like 2, mouse) (mouse) (UniProt Q99LE1). The description is as above.

Chain of UniProt Q9JJC6 (Q9JJC6 whole entry, the tested form may be a part): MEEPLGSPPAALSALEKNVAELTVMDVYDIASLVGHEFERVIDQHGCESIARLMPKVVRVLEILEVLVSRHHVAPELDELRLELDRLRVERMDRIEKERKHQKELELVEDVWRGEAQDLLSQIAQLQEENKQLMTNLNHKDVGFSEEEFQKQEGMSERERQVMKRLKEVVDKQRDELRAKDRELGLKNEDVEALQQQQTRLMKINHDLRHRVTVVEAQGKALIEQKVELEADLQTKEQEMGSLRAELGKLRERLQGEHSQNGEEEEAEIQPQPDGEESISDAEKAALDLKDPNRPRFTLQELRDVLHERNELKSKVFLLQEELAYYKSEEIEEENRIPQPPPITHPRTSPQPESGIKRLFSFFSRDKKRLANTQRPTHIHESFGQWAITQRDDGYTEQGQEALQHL

“Rab12 (endogenous, RAW264.7 macrophages) (from UniProt P35283 1-291) (natural protein)”: the percent reduction of pull-down after GSK2578215A, against untreated cells in assay [1] turned out to be 50%; in assay [2], 80%.
In assay [3], “Rab12 (endogenous, RBL-2H3 cells) (from UniProt P35284 1-291) (natural protein)” displayed a percent of total input pulled down of 14% and a percent reduction of pull-down after LY333531, against Ion/TPA alone of 60%. Further, in assay [4], the percent of total input pulled down amounted to 4% and the percent reduction of pull-down after LY333531, against Ion/TPA alone worked out at 90%.
Regarding “phosphoRab12 (endogenous, Ion/TPA-activated RBL-2H3 cells) (from UniProt P35284 1-291) (natural protein)”, the results for the percent of total input pulled down in assay [3] and in assay [4] were 38% and 18%, respectively.
